Assay results reported in the Human Domainome abundance scans (Beltran et al. 2025).
± gives the uncertainty stated by the source.

B1: Transitional endoplasmic reticulum ATPase, residues 26 to 106; numbered along this chain, P55072 (parent)
chain: LIVDEAINEDNSVVSLSQPKMDELQLFRGDTVLLKGKKRREAVCIVLSDDTCSDEKIRMNRVVRNNLRVRLGDVISIQPCP
B2: Gamma-crystallin C, residues 91 to 170; numbered along this chain, P07315 (parent)
chain: RLYEREDHKGLMMELSEDCPSIQDRFHLSEIRSLHVLEGCWVLYELPNYRGRQYLLRPQEYRRCQDWGAMDAKAGSLRRV

Variants of: B1
Experiment: abundance fitness (aPCA) (normalised: wild type 0, dead -1); higher = more abundant; growth selection in yeast, the domain comes from the species named
Conditions: Homo sapiens

Abundance fitness of substitutions, site by site:
I2: N -0.059 ± 0.14, Q -0.164 ± 0.097, K -0.006 ± 0.11, V -0.058 ± 0.068, D -0.806 ± 0.17, P -0.891 ± 0.27, T 0.024 ± 0.083, W -0.302 ± 0.11, R -0.162 ± 0.049, M -0.102 ± 0.075, A -0.45 ± 0.12, E -0.167 ± 0.11, F -0.103 ± 0.051, S -0.196 ± 0.065, Y -0.418 ± 0.22, C -0.162 ± 0.078, L -0.115 ± 0.055, G -0.357 ± 0.066
L1: M -0.046 ± 0.16, A -0.126 ± 0.11, V -0.003 ± 0.1, I 0.128 ± 0.14, Y -0.582 ± 0.26, G -0.662 ± 0.21, K -0.292 ± 0.31, C -0.117 ± 0.21, F 0.15 ± 0.13, R -0.744 ± 0.23, T -0.424 ± 0.13, S -0.264 ± 0.075
V3: M -0.194 ± 0.093, G -0.811 ± 0.088, C -0.173 ± 0.13, D -0.529 ± 0.41, W -0.952 ± 0.17, I -0.037 ± 0.13, R -0.992 ± 0.15, L -0.708 ± 0.12, F -0.797 ± 0.21, P -0.948 ± 0.31, E -0.809 ± 0.17, T -0.432 ± 0.097, S -0.773 ± 0.14, K -0.639 ± 0.23, Q -0.891 ± 0.17, A -0.242 ± 0.066
D4: A -0.009 ± 0.055

Variants of: B2
Experiment: as above
Conditions: Homo sapiens

Abundance fitness: each site, then its substitutions
A72: H -0.375 ± 0.15, P -0.007 ± 0.063, I -0.745 ± 0.23, Y -0.452 ± 0.26, N -0.066 ± 0.17, G -0.118 ± 0.047, S -0.058 ± 0.064, F -0.5 ± 0.12, M -0.997 ± 0.35, W -0.365 ± 0.12, T -0.207 ± 0.071, V -0.554 ± 0.15, R -0.782 ± 0.093
D71: F -0.148 ± 0.099, W -0.281 ± 0.085, P -0.933 ± 0.35, N -0.173 ± 0.18, E -0.185 ± 0.11, T 0.024 ± 0.12, R -0.224 ± 0.066, S -0.015 ± 0.057, M -0.443 ± 0.23, C -0.029 ± 0.11, K -0.126 ± 0.078, A -0.483 ± 0.19, I -0.297 ± 0.18, Y -0.134 ± 0.12, G -0.165 ± 0.067, H -0.173 ± 0.11, L -0.5 ± 0.078
M70: E 0.034 ± 0.1, D 0.094 ± 0.14, G -0.167 ± 0.062, S -0.052 ± 0.052, R -0.016 ± 0.039, P 0.064 ± 0.06, I 0.097 ± 0.23, F -0.226 ± 0.13, Y -0.105 ± 0.14, K -0.053 ± 0.15, C -0.217 ± 0.25, W -0.257 ± 0.075, H 0.049 ± 0.11, T -0.06 ± 0.079, L -0.063 ± 0.06, V -0.017 ± 0.083
S76: I 0.016 ± 0.29, P -0.776 ± 0.19, V -0.773 ± 0.18, H -0.735 ± 0.36, A -0.628 ± 0.14
L77: R -1.06 ± 0.31, T -0.626 ± 0.23, V -0.169 ± 0.096, M -0.035 ± 0.1, A -0.524 ± 0.056, F -0.304 ± 0.15, I 0.011 ± 0.36, D -0.94 ± 0.5, C -0.325 ± 0.16, E -0.966 ± 0.49
A74: P -0.779 ± 0.13, Q -0.797 ± 0.21, D -0.749 ± 0.35, C -0.177 ± 0.21, Y -0.781 ± 0.45, S -0.314 ± 0.062, I 0.124 ± 0.24, E -0.56 ± 0.13, T -0.128 ± 0.045, G -0.454 ± 0.1, M -0.836 ± 0.37, V 0.036 ± 0.067, L -0.454 ± 0.086
K73: H -0.042 ± 0.18, P -0.628 ± 0.15, A -0.069 ± 0.065, L -0.185 ± 0.072, M -0.231 ± 0.11, F -0.368 ± 0.14, E -0.495 ± 0.14, V -0.18 ± 0.08, Q -0.264 ± 0.16, G -0.304 ± 0.071, S -0.145 ± 0.076, W -0.321 ± 0.12, C -0.175 ± 0.17, N -0.026 ± 0.15, R 0.017 ± 0.05, T -0.124 ± 0.087, Y -0.295 ± 0.21
V80: I -0.341 ± 0.21, F -0.1 ± 0.17
R79: S -0.202 ± 0.29
A69: P -0.968 ± 0.29, L -0.935 ± 0.26, V -0.818 ± 0.22, T -0.361 ± 0.2, G -0.196 ± 0.089, Q -0.38 ± 0.054, D -0.701 ± 0.42, W -0.668 ± 0.4, C -0.621 ± 0.46, R -0.964 ± 0.29, S -0.074 ± 0.074, M -0.847 ± 0.15
G75: D -0.705 ± 0.21, H -0.736 ± 0.47, A -0.607 ± 0.095, Q -0.746 ± 0.21, S -0.479 ± 0.12, R -0.933 ± 0.14, E -0.984 ± 0.49, T -0.949 ± 0.43, P -0.84 ± 0.18, C -0.516 ± 0.25, N -0.767 ± 0.46, W -0.989 ± 0.26, L -0.826 ± 0.27, V -0.815 ± 0.17
